In US20180155451A1 (published 2018) one finds Kd data, which are given here for 11 molecules.

Substitutions are numbered along the chain they refer to.

The Kd is the equilibrium constant for the complex coming apart. A higher Kd goes with a looser complex.

T1: FcγRIIb extracellular domain with C-terminal His tag (human, UniProt P31994 43-217)
T1 construct: extracellular domain; also called FcgRIIb; 2b; not shown: His tag at the C terminus
T1 sequence (looked up): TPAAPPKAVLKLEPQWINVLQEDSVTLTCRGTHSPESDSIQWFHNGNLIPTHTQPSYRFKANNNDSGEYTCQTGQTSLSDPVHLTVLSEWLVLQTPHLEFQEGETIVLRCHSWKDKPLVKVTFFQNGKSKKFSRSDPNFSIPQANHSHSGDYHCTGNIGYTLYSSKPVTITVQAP

T2: FcγRIIa R type extracellular domain with C-terminal His tag (human, UniProt P12318 34-217)
T2 construct: extracellular domain; also called FcgRIIa R; FcgRIIaR; not shown: His tag at the C terminus
T2 sequence (looked up): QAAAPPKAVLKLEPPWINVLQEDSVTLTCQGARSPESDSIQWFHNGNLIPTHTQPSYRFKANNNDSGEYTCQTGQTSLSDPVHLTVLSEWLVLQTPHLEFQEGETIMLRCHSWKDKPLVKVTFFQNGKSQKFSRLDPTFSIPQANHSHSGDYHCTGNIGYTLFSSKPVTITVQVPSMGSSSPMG

T3: FcγRIIa H type extracellular domain with C-terminal His tag (human, UniProt P12318 34-217)
T3 construct: extracellular domain; also called FcgRIIa H; FcgRIIaH; not shown: His tag at the C terminus
T3 sequence (looked up): T2 sequence (looked up) with R134H

B1: H240-FA012/H240-FB056/L73-k0 (antibody, human IgG1, kappa)
heavy 1: QDQLVQSGAEVKKPGASVKVSCKASGFNIKDTYIQWVRQAPGQGLEWMGRIDPLRKQTKYREKFEGRVTITADTSTNTAYMELSSLRSEDTAVYYCVRSGREFDYWGQGTLVTVSSASTKGPSVFPLAPSSKSTSGGTAALGCLVKDYFPEPVTVSWNSGALTSGVHTFPAVLQSSGLYSLSSVVTVPSSSLGTKTYICNVNHKPSNTKVDKKVEPKSCDKTHTCPPCPAPEYYWGPSVFLFPPKPKDTLMISRTPEVTCVVVDVSDEEPKVKFNWYVDGVEVHNAKTKPREEQYNATYRVVSVLTVLHQDWLNGKEYKCKVSNKALPAPIEKTISKAKGQPREPQVYTLPPSRKEMTKNQVSLTCLVKGFYPSDIAVEWESNGQPENNYKTTPPVLDSDGSFFLYSKLTVDKSRWQQGNVFSCSVMHEALHNRYTQKSLSLSP
heavy 2: QDQLVQSGAEVKKPGASVKVSCKASGFNIKDTYIQWVRQAPGQGLEWMGRIDPLRKQTKYREKFEGRVTITADTSTNTAYMELSSLRSEDTAVYYCVRSGREFDYWGQGTLVTVSSASTKGPSVFPLAPSSKSTSEGTAALGCLVEDYFPEPVTVSWNSGALTSGVHTFPAVLQSSGLYSLSSVVTVPSSSLGTQTYICNVDHKPSNTKVDKKVEPKSCDKTHTCPPCPAPELLGGPSVFLFPPKPKDTLMISRTPEVTCVVVDVSHEEPEVQFNWYVDGVEVHNAETKPREEQYNSTYRVVSVLTVLHQDWLNGKEYKCKVSNDALPMPIEETISKAKGQPREPQVYTLPPSREEMTKNQVSLTCLVKGFYPSDIAVEWESNGQPENNYKTTPPVLDSDGSFFLYSKLTVDKSRWQQGNVFSCSVMHEALHNHYTQESLSLSP
light: DIQMTQSPSSLSASVGDRVTITCRASQDIHKYIAWYQQKPGQAPRLLIQYTSTLQPGVPSRFSGSGSGTDYTFTISSLQPEDIATYYCLQYEQLRTFGGGTKVEIKRTVAAPSVFIFPPSDEQLKSGTASVVCLLNNFYPREAKVQWKVDNALQSGNSQESVTEQDSKDSTYSLSSTLTLSKADYEKHKVYACEVTHQGLSSPVTKSFNRGEC
notes: Heterodimerized anti-EREG IgG1 antibody; A chain altered from H240-AK072, B chain altered from H240-BH076
B2: H240-FA030/H240-FB083/L73-k0 (antibody, human IgG1, kappa)
heavy 1: B1 heavy 1 with I198T
heavy 2: B1 heavy 2 with G137S, S191N, L192F, I198T, K213T
light: B1 light
notes: as for B1
B3: H240-FA024/H240-FB065/L73-k0 (antibody, human IgG1, kappa)
heavy 1: B1 heavy 1 with I198T, M357K
heavy 2: B1 heavy 2 with G137S, E146K, S191N, L192F, I198T, K213T
light: B1 light
notes: as for B1
B4: H240-FA030/H240-FB084/L73-k0 (antibody, human IgG1, kappa)
heavy 1: B1 heavy 1 with I198T
heavy 2: B1 heavy 2 with G137S, S191N, L192F, I198T, K213T, N383E
light: B1 light
notes: as for B1
B5: H240-FA024/H240-FB084/L73-k0 (antibody, human IgG1, kappa)
heavy 1: B1 heavy 1 with I198T, M357K
heavy 2: B1 heavy 2 with G137S, S191N, L192F, I198T, K213T, N383E
light: B1 light
notes: as for B1
B6: H240-FA030/H240-FB065/L73-k0 (antibody, human IgG1, kappa)
heavy 1: B1 heavy 1 with I198T
heavy 2: B1 heavy 2 with G137S, E146K, S191N, L192F, I198T, K213T
light: B1 light
notes: as for B1
B7: H240-FA024/H240-FB082/L73-k0 (antibody, human IgG1, kappa)
heavy 1: B1 heavy 1 with I198T, M357K
heavy 2: B1 heavy 2 with E136G, G137E, D202N, N383E
light: B1 light
notes: as for B1
B8: H240-FA024/H240-FB059/L73-k0 (antibody, human IgG1, kappa)
heavy 1: B1 heavy 1 with I198T, M357K
heavy 2: B1 heavy 2 with E136G, G137E, D202N
light: B1 light
notes: as for B1
B9: H240-FA024/H240-FB064/L73-k0 (antibody, human IgG1, kappa)
heavy 1: B1 heavy 1 with I198T, M357K
heavy 2: B1 heavy 2 with G137S, E146K, S191N, L192F, I198T, K213T, E287K
light: B1 light
notes: as for B1
B10: H240-FA030/H240-FB082/L73-k0 (antibody, human IgG1, kappa)
heavy 1: B1 heavy 1 with I198T
heavy 2: B1 heavy 2 with E136G, G137E, D202N, N383E
light: B1 light
notes: as for B1
B11: H240-FA030/H240-FB064/L73-k0 (antibody, human IgG1, kappa)
heavy 1: B1 heavy 1 with I198T
heavy 2: B1 heavy 2 with G137S, E146K, S191N, L192F, I198T, K213T, E287K
light: B1 light
notes: as for B1

In one experiment the target is T4, FcγRIIIa F type extracellular domain with C-terminal His tag (human, UniProt P08637 17-208).
T4 construct: extracellular domain; also called FcgRIIIa F; FcgRIIIaF; not shown: His tag at the C terminus
T4 sequence (P08637 17-208): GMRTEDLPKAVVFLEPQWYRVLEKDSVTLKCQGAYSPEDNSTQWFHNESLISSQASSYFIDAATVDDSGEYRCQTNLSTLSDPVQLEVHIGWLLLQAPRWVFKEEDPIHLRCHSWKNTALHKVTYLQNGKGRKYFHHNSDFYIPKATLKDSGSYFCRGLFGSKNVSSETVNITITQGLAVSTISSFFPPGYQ
Nature of the experiment: SPR (Biacore), antibody captured on chip, soluble FcgR as analyte; experiment 1. As for the experimental part: (§1) Antibodies of interest were analyzed for the interaction to FcgR according to the method described in Reference Example 8.
(§2) Analysis of interaction between obj ective antibody and the FcγR was carried out using Biacore T100 (GE Healthcare), Biacore T200, Biacore A100, and Biacore 4000. HBS-EP+ (GE Healthcare) was used as the running buffer, and the measurement temperature was set to 25° C. Chips produced by immobilizing the antigen peptide by the amine coupling method to a Series S sensor Chip CM5 (GE Healthcare), chips produced by allowing preliminarily biotinylated antigen peptides to interact with and immobilize onto a Series S Sensor Chip SA (certified) (GE Healthcare), chips produced by immobilizing Protein L (ACTIGEN, BioVision) to Series S Sencor Chip CM5 (GE Healthcare), or chips produced by immobilizing Protein A/G (Thermo Scientific) to Series S Sencor Chip CM5 (GE Healthcare) were used. Antibodies of interest were captured onto these chips, and allowed to interact to each FcγR diluted with running buffer. To regenerate and repeatedly use the chip, the antibodies captured onto the chip were washed off by reacting 10 mM glycine-HCl, pH 1.5.
In the case of B1, the Kd came to 5 nM.
B2 registered a Kd of 3.9 nM.
Take B3: the Kd is 5 nM.
On to B4, for which the Kd stood at 4.2 nM.
On the same count and under the same terms, then B5, with 4.6 nM; and B6, with 4.6 nM.
The same measure, in the same setting: to B7 belongs 4.6 nM; to B8, 4.4 nM; to B9, 4.7 nM.
Molecule B10 yielded a Kd of 4.3 nM.
Still for that read-out and setting: then B11, with 5.3 nM.

Another experiment deals with T5, FcγRIa extracellular domain with C-terminal His tag (human, UniProt P12314 16-292).
T5 construct: extracellular domain; also called FcgRI; FcgRIa; not shown: His tag at the C terminus
T5 sequence (P12314 16-292): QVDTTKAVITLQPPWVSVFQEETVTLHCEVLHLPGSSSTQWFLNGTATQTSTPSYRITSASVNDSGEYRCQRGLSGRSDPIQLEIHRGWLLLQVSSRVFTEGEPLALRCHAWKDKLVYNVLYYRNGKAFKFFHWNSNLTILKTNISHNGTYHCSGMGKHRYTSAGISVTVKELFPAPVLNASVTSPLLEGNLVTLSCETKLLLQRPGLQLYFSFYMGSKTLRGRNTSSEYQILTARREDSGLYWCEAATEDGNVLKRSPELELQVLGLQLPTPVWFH
Described as above. The method, then: as §1, §2
In turn, B1 registered a Kd of 0.1 nM.
Same read-out and setting: to B2 belongs 0.081 nM; to B3, 0.15 nM; to B4, 0.12 nM.
In turn, B5 came in with a Kd of 0.095 nM.
As for B6, binding was characterised by a dissociation constant (Kd) of 0.1 nM.
B7 yielded a Kd of 0.13 nM.
Same read-out and setting: to B8 belongs 0.089 nM.
On the same count and under the same terms, to B9 belongs 0.095 nM.
Still for that read-out and setting: then B10, with 0.092 nM; and B11, with 0.057 nM.

A further experiment deals with T6, FcγRIIIa V type extracellular domain with C-terminal His tag (human, UniProt P08637 17-208).
T6 construct: extracellular domain; also called FcgRIIIa V; FcgRIIIaV; not shown: His tag at the C terminus
T6 sequence (P08637 17-208 F176V): as the sequence (P08637 17-208) above, with F160V counted along it
The experiment is described as above. The method, then:
as §1, §2
Consider B1, for which the Kd was 1.3 nM.
The same measure, in the same setting: to B2 belongs 1.2 nM.
The same measure, in the same setting: to B3 belongs 1.4 nM.
The same measure, in the same setting: to B4 belongs 1.3 nM.
The molecule B5 gave a Kd of 1.2 nM.
Regarding B6, the Kd worked out at 1.1 nM.
The same measure, in the same setting: to B7 belongs 1.3 nM; to B8, 1.3 nM; to B9, 1.3 nM.
The same measure, in the same setting: to B10 belongs 1.3 nM; to B11, 1.5 nM.

The next experiment addresses T1, FcγRIIb extracellular domain with …. The experiment is described as above. As for the experimental part: as §1, §2
With B1, the Kd was found to be 1400 nM.
On the same count and under the same terms, then B2, with 1500 nM; and B3, with 1700 nM.
Turning to B4, binding was put at a Kd of 2500 nM.
In the case of B5, the Kd amounted to 1500 nM.
On the same count and under the same terms, then B6, with 2400 nM; and B7, with 1500 nM; and B8, with 1600 nM.
Still for that read-out and setting: then B9, with 1900 nM; and B10, with 1900 nM.
In turn, B11 had a Kd of 1800 nM.

The target of another experiment is T2, FcγRIIa R type extracellular domain …. The experiment is described as above. The method, then:
as §1, §2
Molecule B1 had a Kd of 280 nM.
Same read-out and setting: to B2 belongs 280 nM; to B3, 300 nM; to B4, 270 nM.
Still for that read-out and setting: to B5 belongs 250 nM; to B6, 340 nM; to B7, 240 nM.
Same read-out and setting: to B8 belongs 290 nM.
Turning to B9, binding was characterised by a dissociation constant (Kd) of 330 nM.
Same read-out and setting: then B10, with 300 nM.
Still for that read-out and setting: to B11 belongs 290 nM.

The target of a further experiment is T3, FcγRIIa H type extracellular domain …. Described as above. The method, then:
as §1, §2
For B1, binding was put at a Kd of 86 nM.
Same read-out and setting: then B2, with 82 nM; and B3, with 95 nM.
On the same count and under the same terms, to B4 belongs 88 nM; to B5, 79 nM.
Same read-out and setting: then B6, with 99 nM; and B7, with 80 nM; and B8, with 93 nM.
In turn, B9 returned a Kd of 110 nM.
Still for that read-out and setting: then B10, with 88 nM; and B11, with 96 nM.
